Measured values as given in the supplement of paper PMC7125110.
± gives the standard error. For part of these data: Variants at the floor of the assay were thinned out.

B1: glmS ribozyme (parent)
chain: AUAAAAGCGCCAGAACUACAGAAAUGUAGUUGACGAGGAGGAGGUUUAUCGAAUUUUCGGCGGAUGCCUCCAAA

What was measured:
Conditions in all cases: with glucosamine-6-phosphate
glucosamine-6-phosphate [1] = variants of: B1; test: kcat; higher = faster cleavage; RNA array
Summary of the method: (§1)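 E. coli RNA polymerase transcribed barcoded ribozyme variants in situ on sequenced MiSeq chips, which were tracked via a hybridised Cy3 probe at 37 °C. Tiles were imaged over ~14 h after glucosamine-6-phosphate (40 μM to 10 mM) in HEPES/KCl/Mg(OAc)2 buffer was flowed in. Normalised per-tile medians were fit to one- or two-exponential decays for kobs, and kcat and KM came from weighted Michaelis–Menten fits.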

glucosamine-6-phosphate [2] = variants of: B1; test: self-cleavage kobs at 40 uM GlcN6P; higher = faster cleavage; RNA array
Summary of the method: as §1

glucosamine-6-phosphate [3] = variants of: B1; test: self-cleavage kobs at 2500 uM GlcN6P; higher = faster cleavage; RNA array
Summary of the method: as §1

glucosamine-6-phosphate [4] = variants of: B1; test: KM; higher = weaker cofactor use; RNA array
Summary of the method: as §1

glucosamine-6-phosphate [5] = variants of: B1; test: self-cleavage kobs at 160 uM GlcN6P; higher = faster cleavage; RNA array
Summary of the method: as §1

glucosamine-6-phosphate [6] = variants of: B1; test: self-cleavage kobs at 640 uM GlcN6P; higher = faster cleavage; RNA array
Summary of the method: as §1

glucosamine-6-phosphate [7] = variants of: B1; test: self-cleavage kobs at 10000 uM GlcN6P; higher = faster cleavage; RNA array
Summary of the method: as §1

Variant | kcat (glucosamine-6-phosphate [1]) | self-cleavage kobs at 40 uM GlcN6P (glucosamine-6-phosphate [2]) | self-cleavage kobs at 2500 uM GlcN6P (glucosamine-6-phosphate [3]) | KM (glucosamine-6-phosphate [4]) | self-cleavage kobs at 160 uM GlcN6P (glucosamine-6-phosphate [5]) | self-cleavage kobs at 640 uM GlcN6P (glucosamine-6-phosphate [6]) | self-cleavage kobs at 10000 uM GlcN6P (glucosamine-6-phosphate [7])
G37C G66A | 3.43e-05 ± 7.8e-06 s⁻¹ | < 1e-05 s⁻¹ | 3.43e-05 ± 1.5e-05 s⁻¹ |  |  |  | 
A39G C67G | 0.00311 ± 0.00098 s⁻¹ | 0.000189 ± 4.5e-05 s⁻¹ | 0.00535 ± 0.0012 s⁻¹ | 602 ± 300 µM | 0.000603 ± 0.00015 s⁻¹ | 0.00174 ± 0.00035 s⁻¹ | 0.00223 ± 0.00066 s⁻¹
G38U A48C A52C C71A | < 1e-05 s⁻¹ | < 1e-05 s⁻¹ |  |  |  |  | < 1e-05 s⁻¹
G40A C70A | 0.000241 ± 1.6e-05 s⁻¹ | 2.59e-05 ± 1.2e-05 s⁻¹ | 0.000235 ± 4.9e-05 s⁻¹ | 350 ± 60 µM | 6.86e-05 ± 1.9e-05 s⁻¹ | 0.000163 ± 2.5e-05 s⁻¹ | 0.000217 ± 3.8e-05 s⁻¹
A39C C70U | 0.000652 ± 0.00018 s⁻¹ | 4.36e-05 ± 6.9e-06 s⁻¹ | 0.000461 ± 8.2e-05 s⁻¹ | 1210 ± 530 µM | 7.31e-05 ± 9.7e-06 s⁻¹ | 0.00019 ± 2.5e-05 s⁻¹ | 0.000616 ± 7.3e-05 s⁻¹
G37C A64U C68G | 1.68e-05 ± 1.7e-06 s⁻¹ |  |  | 29.1 ± 13 µM |  |  | 
G38A C58U C68G | 4.92e-05 ± 1.7e-05 s⁻¹ |  | 6.16e-05 ± 2.5e-05 s⁻¹ |  |  | 5.5e-05 ± 2.5e-05 s⁻¹ | 
G37C U47G | 1.63e-05 ± 2.9e-06 s⁻¹ |  |  |  |  |  | 
G38U A64U | < 1e-05 s⁻¹ | < 1e-05 s⁻¹ | < 1e-05 s⁻¹ |  |  | < 1e-05 s⁻¹ | 
A39C C67G | 0.000391 ± 0.00014 s⁻¹ | 2.13e-05 ± 7.7e-06 s⁻¹ | 0.000216 ± 1.7e-05 s⁻¹ |  | 3.74e-05 ± 7.5e-06 s⁻¹ | 8.41e-05 ± 7.6e-06 s⁻¹ | 
G40C G66A | 0.00247 ± 0.00097 s⁻¹ | 9.75e-05 ± 2.1e-05 s⁻¹ | 0.00108 ± 0.00021 s⁻¹ |  | 0.000162 ± 4.5e-05 s⁻¹ | 0.00111 ± 0.0003 s⁻¹ | 0.00269 ± 0.0004 s⁻¹
G40U A42U | 0.000115 ± 2e-05 s⁻¹ |  | 0.000109 ± 1.3e-05 s⁻¹ |  | 2.53e-05 ± 1.2e-05 s⁻¹ | 4.15e-05 ± 9.6e-06 s⁻¹ | 9.45e-05 ± 1.4e-05 s⁻¹
G40A U56C | 0.000181 ± 2.6e-05 s⁻¹ |  | 8.42e-05 ± 1.1e-05 s⁻¹ | 2280 ± 720 µM |  | 4.68e-05 ± 8.5e-06 s⁻¹ | 0.000157 ± 1.9e-05 s⁻¹
G40A U56A | 0.00543 ± 0.0016 s⁻¹ | 9.01e-05 ± 2.5e-05 s⁻¹ | 0.00192 ± 0.00042 s⁻¹ | 3080 ± 1300 µM | 0.000256 ± 5.7e-05 s⁻¹ | 0.00103 ± 0.00021 s⁻¹ | 0.00516 ± 0.0011 s⁻¹
G40A A52G | 0.000342 ± 4.4e-05 s⁻¹ |  | 0.000251 ± 2.8e-05 s⁻¹ | 1490 ± 450 µM |  | 0.000102 ± 1.6e-05 s⁻¹ | 0.000277 ± 3e-05 s⁻¹
G37U C70U C71U | 1.13e-05 ± 3.2e-06 s⁻¹ |  |  |  |  |  | 
A39C A64G | 0.00631 ± 0.0019 s⁻¹ | 0.000169 ± 1.3e-05 s⁻¹ | 0.00323 ± 0.00045 s⁻¹ | 1870 ± 760 µM | 0.000342 ± 6.2e-05 s⁻¹ | 0.0014 ± 0.00018 s⁻¹ | 0.00604 ± 0.00065 s⁻¹

Variant | kcat (glucosamine-6-phosphate [1]) | self-cleavage kobs at 40 uM GlcN6P (glucosamine-6-phosphate [2]) | self-cleavage kobs at 2500 uM GlcN6P (glucosamine-6-phosphate [3]) | KM (glucosamine-6-phosphate [4]) | self-cleavage kobs at 160 uM GlcN6P (glucosamine-6-phosphate [5]) | self-cleavage kobs at 640 uM GlcN6P (glucosamine-6-phosphate [6]) | self-cleavage kobs at 10000 uM GlcN6P (glucosamine-6-phosphate [7])
G38U G40A | < 1e-05 s⁻¹ |  |  |  |  |  | 
A39U C58A | 0.000543 ± 0.00013 s⁻¹ |  | 8.13e-05 ± 1.4e-05 s⁻¹ |  |  |  | 0.000214 ± 2.7e-05 s⁻¹
A39U C58U | 1.89e-05 ± 1e-06 s⁻¹ |  |  |  |  |  | 
G40A C71U | 0.0789 ± 0.028 s⁻¹ | 0.000981 ± 7.3e-05 s⁻¹ | 0.0322 ± 0.009 s⁻¹ | 3660 ± 1500 µM | 0.00194 ± 0.00048 s⁻¹ | 0.0113 ± 0.0013 s⁻¹ | 0.0591 ± 0.0079 s⁻¹
A39C U46C | 0.00261 ± 0.00017 s⁻¹ | 3.41e-05 ± 9.8e-06 s⁻¹ | 0.00122 ± 0.00023 s⁻¹ | 2740 ± 280 µM | 0.000168 ± 3.9e-05 s⁻¹ | 0.000488 ± 6.6e-05 s⁻¹ | 0.00206 ± 0.00025 s⁻¹
A39G C50A G51U C71G | 1.15e-05 ± 3.2e-06 s⁻¹ |  |  |  |  |  | 
A39G A53G | 0.0916 ± 0.024 s⁻¹ | 0.0015 ± 0.00022 s⁻¹ | 0.0404 ± 0.015 s⁻¹ | 2770 ± 830 µM | 0.00433 ± 0.00068 s⁻¹ | 0.0194 ± 0.0037 s⁻¹ | 0.0725 ± 0.019 s⁻¹
G37A U47A | 0.00374 ± 0.0017 s⁻¹ | 4.6e-05 ± 1.8e-05 s⁻¹ | 0.000752 ± 0.00014 s⁻¹ |  | 7.83e-05 ± 1.8e-05 s⁻¹ | 0.000278 ± 4.8e-05 s⁻¹ | 0.00229 ± 0.00044 s⁻¹
G38A U54G | < 1e-05 s⁻¹ | < 1e-05 s⁻¹ |  |  |  |  | 
G38U U49A C67A | 1.26e-05 ± 4.6e-06 s⁻¹ |  |  |  |  |  | 
G38C U49G C68A | 1.34e-05 ± 4.6e-06 s⁻¹ |  |  |  |  |  | 
A39C A42C | 6.31e-05 ± 3.9e-06 s⁻¹ |  | 4.41e-05 ± 9.6e-06 s⁻¹ | 890 ± 270 µM |  | 3.24e-05 ± 1.5e-05 s⁻¹ | 5.88e-05 ± 8.3e-06 s⁻¹
A39C A42G | 0.00493 ± 0.0008 s⁻¹ | 0.000141 ± 1.4e-05 s⁻¹ | 0.00282 ± 0.00046 s⁻¹ | 1490 ± 310 µM | 0.000376 ± 7.6e-05 s⁻¹ | 0.00152 ± 0.00029 s⁻¹ | 0.0047 ± 0.00074 s⁻¹
G37A G41A | 0.000353 ± 0.00012 s⁻¹ |  | 0.00016 ± 2.5e-05 s⁻¹ |  | 3.21e-05 ± 1.4e-05 s⁻¹ | 3.79e-05 ± 9.7e-06 s⁻¹ | 0.000229 ± 4.8e-05 s⁻¹
G37A G41C | 2.41e-05 ± 9.5e-06 s⁻¹ |  | 3.87e-05 ± 1.5e-05 s⁻¹ |  |  |  | 
G38U G66U | < 1e-05 s⁻¹ |  |  |  | < 1e-05 s⁻¹ | < 1e-05 s⁻¹ | 
G40A U45A | 0.00316 ± 0.00068 s⁻¹ | 0.000251 ± 3.8e-05 s⁻¹ | 0.00221 ± 0.00084 s⁻¹ | 510 ± 160 µM | 0.000585 ± 0.00027 s⁻¹ | 0.00157 ± 0.00029 s⁻¹ | 0.00427 ± 0.00099 s⁻¹
